Experiment [1] addresses T1, neuropeptide Y receptor Y2 (UniProt P49146 1-381).
T1 construct: receptor of NPY, Y2; source: U2OS cells stably expressing the receptor, bought: Thermo Fisher Scientific; on cells
T1 sequence (looked up): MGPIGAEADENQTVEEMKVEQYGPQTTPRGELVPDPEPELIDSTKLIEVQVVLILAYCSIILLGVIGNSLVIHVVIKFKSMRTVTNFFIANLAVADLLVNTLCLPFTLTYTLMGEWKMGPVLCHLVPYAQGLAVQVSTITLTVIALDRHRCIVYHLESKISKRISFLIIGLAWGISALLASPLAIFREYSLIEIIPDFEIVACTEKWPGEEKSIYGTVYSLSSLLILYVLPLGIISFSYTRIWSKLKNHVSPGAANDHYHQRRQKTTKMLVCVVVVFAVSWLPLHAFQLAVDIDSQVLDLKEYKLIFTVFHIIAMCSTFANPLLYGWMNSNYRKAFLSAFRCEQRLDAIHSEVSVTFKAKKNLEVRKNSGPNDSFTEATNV
The experiment can be described thus: radioligand binding; competition with 0.1 nM [^125I]-PYY on U2OS cells with Y1, Y2 or Y5; 25 mM HEPES, 120 mM NaCl, 5 mM MgCl2, 4.7 mM KCl, 1 mM CaCl2, 0.5% BSA, 2 g/L glucose; peptides 10^-12 to 10^-5 M; 60 min at RT; Ki by the Cheng-Prusoff equation.

The target in experiment [2] is T2, ghrelin receptor (UniProt Q92847 1-366).
For experiment [3], the target named is T3, kappa-opioid receptor (UniProt P41145 1-380).
For experiment [4], the target named is T4, neuropeptide Y receptor Y5 (UniProt Q15761 1-445).
T4 sequence (looked up): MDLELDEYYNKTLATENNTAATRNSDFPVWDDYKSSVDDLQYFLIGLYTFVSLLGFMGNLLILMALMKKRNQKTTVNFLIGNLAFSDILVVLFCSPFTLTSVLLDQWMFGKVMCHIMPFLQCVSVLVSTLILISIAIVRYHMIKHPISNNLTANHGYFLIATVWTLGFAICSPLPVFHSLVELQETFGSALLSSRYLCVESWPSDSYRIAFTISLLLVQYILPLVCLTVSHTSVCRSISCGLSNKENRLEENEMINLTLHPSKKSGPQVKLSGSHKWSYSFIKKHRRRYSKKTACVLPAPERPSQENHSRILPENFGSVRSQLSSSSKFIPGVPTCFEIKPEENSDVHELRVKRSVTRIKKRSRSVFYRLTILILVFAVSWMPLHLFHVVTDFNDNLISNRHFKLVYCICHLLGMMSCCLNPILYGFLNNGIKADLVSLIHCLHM

The target of experiment [5] is T5, GPR10 (human, UniProt P49683 1-370).
T5 sequence (looked up): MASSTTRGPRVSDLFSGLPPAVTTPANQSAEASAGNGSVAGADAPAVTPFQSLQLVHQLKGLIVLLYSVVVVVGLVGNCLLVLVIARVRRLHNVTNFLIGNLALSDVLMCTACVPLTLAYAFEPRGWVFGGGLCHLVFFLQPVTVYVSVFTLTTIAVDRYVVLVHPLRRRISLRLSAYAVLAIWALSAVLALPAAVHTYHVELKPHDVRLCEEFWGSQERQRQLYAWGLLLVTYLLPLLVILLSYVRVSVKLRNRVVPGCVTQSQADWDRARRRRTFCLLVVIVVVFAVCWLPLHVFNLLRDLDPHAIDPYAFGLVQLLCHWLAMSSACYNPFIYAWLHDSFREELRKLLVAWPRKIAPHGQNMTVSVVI

The target of experiment [6] is T2, ghrelin receptor. The experiment can be described thus: radioligand binding; saturation with [^125I]-ghrelin on GHSR.
In experiment [7] the target is T3, kappa-opioid receptor. The experiment can be described thus: radioligand binding; saturation with [^125I]-dynorphin on KOR.
Experiment [8] has as its target T6, NPFF-R1 (UniProt Q9GZQ6 1-430).
T6 construct: also called NPFF-1R; source: CHO-K1 cell line, bought: Perkin Elmer
The experiment can be described thus: radioligand binding; saturation with [^125I]-1DMe on membranes from CHO-K1 cells expressing NPFF-R1. As to conditions: one partner purified.

Experiment [9] concerns the target T2, ghrelin receptor. The experiment can be described thus: radioligand binding; competition with 0.1 nM [^125I]-ghrelin on U2OS cells stably expressing GHSR; 50 mM Tris-Cl pH 7.4, 118 mM NaCl, 5 mM MgCl2, 4.7 mM KCl, 0.1% BSA; peptides 10^-12 to 10^-5 M; 60 min at RT; Ki by the Cheng-Prusoff equation. As to conditions: one partner purified.
The target in experiment [10] is T7, neuropeptide Y receptor Y1 (UniProt P25929 1-384).
T7 construct: receptor of NPY, Y1; source: U2OS cells stably expressing the receptor, bought: Thermo Fisher Scientific; on cells
T7 sequence (looked up): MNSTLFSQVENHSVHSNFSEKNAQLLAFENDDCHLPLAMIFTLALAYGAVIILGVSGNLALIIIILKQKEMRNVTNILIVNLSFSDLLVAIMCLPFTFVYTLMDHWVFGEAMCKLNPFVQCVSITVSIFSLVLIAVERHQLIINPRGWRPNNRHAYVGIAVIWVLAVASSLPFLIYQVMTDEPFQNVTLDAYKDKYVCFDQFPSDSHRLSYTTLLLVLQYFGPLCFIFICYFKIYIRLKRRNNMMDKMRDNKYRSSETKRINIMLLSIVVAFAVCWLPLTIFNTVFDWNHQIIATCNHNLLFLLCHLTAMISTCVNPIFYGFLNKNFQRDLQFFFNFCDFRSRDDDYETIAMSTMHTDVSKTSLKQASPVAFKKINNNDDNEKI
The experiment can be described thus: radioligand binding; competition with 0.1 nM [^125I]-PYY on U2OS cells with Y1, Y2 or Y5; 25 mM HEPES, 120 mM NaCl, 5 mM MgCl2, 4.7 mM KCl, 1 mM CaCl2, 0.5% BSA, 2 g/L glucose; peptides 10^-12 to 10^-5 M; 60 min at RT; Ki by the Cheng-Prusoff equation. As to conditions: one partner purified.

For experiment [11], the target named is T4, neuropeptide Y receptor Y5. The description is as above. As to conditions: one partner purified.
Experiment [12] addresses T3, kappa-opioid receptor. The experiment can be described thus: radioligand binding; competition with [^125I]-dynorphin A on plasma membranes of CHO-K1 cells with KOR, 5 µg protein/tube; 50 mM Tris-HCl pH 7.4, 60 mM NaCl, 1 mM MgCl2, 0.5% BSA; 60 min at RT; filtration; Ki by the Cheng-Prusoff equation. Particulars: one partner purified.
In experiment [13] the target is T2, ghrelin receptor. The experiment can be described thus: cell-based or functional assay.
Experiment [14] addresses T3, kappa-opioid receptor. The experiment can be described thus: cell-based or functional assay.
In experiment [15] the target is T4, neuropeptide Y receptor Y5. The experiment can be described thus: cell-based or functional assay.
In experiment [16] the target is T5, GPR10. The experiment can be described thus: cell-based or functional assay.
Experiment [17] concerns the target T6, NPFF-R1. The experiment can be described thus: radioligand binding; competition with [^125I]-1DMe on plasma membranes of CHO-K1 cells with NPFF-R2 or NPFF-R1, 5 µg protein/tube; 50 mM Tris-HCl pH 7.4, 60 mM NaCl, 1 mM MgCl2, 0.5% BSA; 60 min at RT; filtration; Ki by the Cheng-Prusoff equation. As to conditions: one partner purified.
Another experiment deals with T8, NPFF-R2 (UniProt Q9Y5X5 1-522).
T8 construct: also called NPFF-2R; source: CHO-K1 cell line (AequoScreen), bought: Perkin Elmer
The experiment is described as above. Particulars: one partner purified.

Experiment [18] concerns the target T5, GPR10. The experiment can be described thus: radioligand binding; competition with [^125I]-PrRP31 on CHO-K1 cells expressing human GPR10; Ki by the Cheng-Prusoff equation. As to conditions: one partner purified.

Read-outs that look alike come from different tables or passages of the source. Starred links: 1 amine or outer side, 2 acyl side, 3 side chain; linkers in the order of their positions; H or OH if unused. Non-standard residues stand in square brackets, D forms with d. Groups on a side chain read outwards from the residue. No end group written: not given here. *: point of attachment. γGlu = O=C(O)[C@H](CCC(=O)[*:2])N[*:1]; Palmitoyl = CCCCCCCCCCCCCCCC(=O)*; NMeF = CN[C@@H](Cc1ccccc1)C(=O)O; 125I = [125I]*

As to Palm-PrRP31 (peptide), the inhibition constant (Ki) in [1] was > 10000 nM. The EC50, agonist mode, β-lactamase reporter assay was 1270 nM with ghrelin receptor [2], > 10000 nM in the experiment with kappa-opioid receptor [3], 56.5 nM in experiment [4] and 0.0718 nM in the experiment with GPR10 [5].
In the case of [^125I]-ghrelin (peptide), the Kd in the experiment with ghrelin receptor [6] stood at 0.44 nM.
For [^125I]-dynorphin A (peptide), the Kd with kappa-opioid receptor [7] was 2.38 nM.

B1: [^125I]-1DMe (peptide)
peptide: [dY](125I)L[NMeF]QPQRF-NH2
notes: 1DMe iodinated at D-Tyr1; numbers count on: the peptide
B1 gave a Kd with NPFF-R1 [8] of 0.94 nM.

B2: Palm^11-PrRP31 (peptide)
peptide: SRTHRHSMEIK([γGlu-Palmitoyl])TPDINPAWYASRGIRPVGRF-NH2
notes: analog of human PrRP31 with Arg11 replaced by Lys11 that carries palmitic acid through a gamma-Glu linker; numbers count on: the peptide PrRP31; source: synthetic peptide, palmitoylated on resin, purified (HPLC, purity greater than 95%)
With B2, the Ki is 2800 nM in the experiment with ghrelin receptor [9]; > 10000 nM in experiment [10]; 362 nM in experiment [11]; > 10000 nM in experiment [1] (one partner purified); 4280 nM in the experiment with kappa-opioid receptor [12]; 13.5 nM with NPFF-R1 [17]. Moreover, the values for the inhibition constant (Ki) in the experiment with NPFF-R2 and with GPR10 [18] were 7.66 nM and 3.44 nM, respectively. For the same molecule, the “EC50, agonist mode, β-lactamase reporter assay” value is 1070 nM with ghrelin receptor [13], > 10000 nM with kappa-opioid receptor [14], 583 nM in experiment [15] and 0.0391 nM with GPR10 [16].

The record behind these values is paper PMC8396344, “Palmitoylation of Prolactin-Releasing Peptide Increased Affinity for and Activation of the GPR10, NPFF-R2 and NPFF-R1 Receptors: In Vitro Study” (International Journal of Molecular Sciences, 2021).
